This is an account of results in article PMC5354511, “Autophosphorylation-based Calcium (Ca^2+) Sensitivity Priming and Ca^2+/Calmodulin Inhibition of Arabidopsis thaliana Ca^2+-dependent Protein Kinase 28 (CPK28)*^([image sbox.jpg])^♦” (The Journal of Biological Chemistry, 2017).

This assay has as its target T1, recombinant CaM6 (untagged) (UniProt Q03509 1-149).
T1 construct: calmodulin 6 (CaM6), 'a conserved CaM isoform'; recombinant, untagged; also called Ca2+/CaM; source: E. coli NiCO (DE3), purified (heat step, phenyl-Sepharose)
Nature of the assay: native gel or EMSA; CaM (240 pmol) with different amounts of LL22 or pLL22 peptide in the ratios indicated, 20 μl, 60 min, then native PAGE. The conditions noted are these: both partners purified. In general terms: A gel shift assay detects complexes by their altered migration in electrophoresis.

Usually stoichiometry N stands for a count of units in the complex or per binding partner.

As to LRQFVRYSRLKQFALRALASTL (source: synthetic peptide (LifeTein)) [LL22 peptide (CPK28 autoinhibitory junction)], the “stoichiometry N” value stood at 1.
